Our source for the Kd values is paper PMC8307404, “Crystal Structure-Guided Design of Bisubstrate Inhibitors and Photoluminescent Probes for Protein Kinases of the PIM Family” (Molecules, 2021).

Targets include protein kinase PIM-1 (human, UniProt P11309 1-313); protein kinase PIM-2 (human, UniProt Q9P1W9 1-311); protein kinase PIM-3 (human, UniProt Q86V86 1-326).
Assay in all cases: fluorescence polarisation + other: time-gated luminescence intensity (TGLI); binding/displacement assay in solution with the probes ARC-1451, ARC-1188 or ARC-583; 20 min at 30 °C; 50 mM HEPES pH 7.4, 150 mM NaCl, 5 mM dithiothreitol, 0.5 mg/mL BSA, 0.005% Tween-20; N = 2
Holding throughout (conditions): both partners purified
For orientation: In fluorescence polarisation assays a small probe gives low polarisation when free and higher when bound to something large.

Assay [1] addresses catalytic subunit α of protein kinase A (human, UniProt P17612 1-351).

Square brackets hold non-standard residues; d marks the D form. Ends that are not written are not given here.

Chain of protein kinase PIM-1 (P11309 whole entry): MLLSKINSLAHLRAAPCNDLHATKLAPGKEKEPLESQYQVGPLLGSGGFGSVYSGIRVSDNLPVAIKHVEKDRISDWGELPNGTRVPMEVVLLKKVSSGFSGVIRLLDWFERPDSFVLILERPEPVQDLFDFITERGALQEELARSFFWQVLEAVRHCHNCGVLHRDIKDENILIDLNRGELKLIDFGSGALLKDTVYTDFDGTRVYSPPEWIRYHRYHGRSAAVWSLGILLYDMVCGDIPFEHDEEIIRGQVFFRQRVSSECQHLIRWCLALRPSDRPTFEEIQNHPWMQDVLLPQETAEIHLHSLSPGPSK
Chain of protein kinase PIM-2 (Q9P1W9 whole entry): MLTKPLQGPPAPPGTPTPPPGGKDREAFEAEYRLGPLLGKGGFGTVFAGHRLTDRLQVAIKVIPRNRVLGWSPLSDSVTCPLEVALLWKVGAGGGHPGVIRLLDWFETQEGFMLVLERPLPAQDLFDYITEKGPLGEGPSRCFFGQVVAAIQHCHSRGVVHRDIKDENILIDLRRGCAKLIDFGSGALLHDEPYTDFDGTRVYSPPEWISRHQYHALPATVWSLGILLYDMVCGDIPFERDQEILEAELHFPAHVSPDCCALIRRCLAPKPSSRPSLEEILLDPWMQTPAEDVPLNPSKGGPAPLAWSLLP

B1: PIM peptide, (D-Arg)2-Gly-D-Arg-D-Lys-NH2 (peptide)
peptide: [dR][dR]G[dR][dK]-NH2
modifications: N-terminus assumed
SMILES: N=C(N)NCCC[C@@H](N)C(=O)N[C@H](CCCNC(=N)N)C(=O)NCC(=O)N[C@H](CCCNC(=N)N)C(=O)N[C@H](CCCCN)C(N)=O
notes: printed in three-letter code as (D-Arg)2-Gly-D-Arg-D-Lys-NH2; All chiral residues are D-amino acids; This is the peptide part of compounds 1-5, without the adenosine analogue moiety and the linker; also called designed peptide mimetic moiety of compounds 1-5; source: synthetic peptide (Fmoc solid-phase synthesis on Rink amide resin, HPLC purified)
What is called Kd is the constant that tells how readily two partners part at equilibrium. On to B1, for which the Kd with protein kinase PIM-1 is above 11.5 µM; in the assay with protein kinase PIM-2 it was above 46 µM; in the assay with protein kinase PIM-3 it was above 16.4 µM; in assay [1], above 89 µM.
